Test results taken from patent publication US10772928B2, “Modulation and detection of a neuronal alternative splicing regulatory network for treatment and diagnosis of neurological disorders” (The Governing Council of the University of Toronto, priority 2014, dated 2020).

T1: nSR100 (Mus musculus, UniProt Q8BKA3)
T1 construct: host or cells: mouse N2A cells
T1 sequence (Q8BKA3 1-608): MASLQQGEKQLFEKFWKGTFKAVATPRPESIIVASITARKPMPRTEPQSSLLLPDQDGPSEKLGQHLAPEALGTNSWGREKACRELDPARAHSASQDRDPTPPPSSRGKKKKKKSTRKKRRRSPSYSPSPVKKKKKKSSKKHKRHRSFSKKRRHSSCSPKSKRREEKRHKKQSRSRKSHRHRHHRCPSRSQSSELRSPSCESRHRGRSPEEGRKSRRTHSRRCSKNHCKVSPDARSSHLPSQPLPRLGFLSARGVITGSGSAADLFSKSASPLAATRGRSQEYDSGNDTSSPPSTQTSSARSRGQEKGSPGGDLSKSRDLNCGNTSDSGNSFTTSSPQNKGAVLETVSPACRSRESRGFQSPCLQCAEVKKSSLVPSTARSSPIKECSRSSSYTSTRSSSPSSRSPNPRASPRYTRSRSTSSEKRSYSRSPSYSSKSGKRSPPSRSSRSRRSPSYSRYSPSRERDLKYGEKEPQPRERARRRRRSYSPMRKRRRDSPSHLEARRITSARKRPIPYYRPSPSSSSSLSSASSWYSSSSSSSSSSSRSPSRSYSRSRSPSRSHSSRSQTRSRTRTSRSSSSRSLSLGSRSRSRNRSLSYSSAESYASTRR

B1: Acin1 (protein, UniProt Q9JIX8 1-1338, looked up)
Apoptotic chromatin …: MWGRKRPNSSGETRGILSGNRGVDYGSGRGQSGPFEGRWRKLPKMPEAVGTDPSTSRKMAELEEVTLDGKPLQALRVTDLKAALEQRGLAKSGQKSALVKRLKGALMLENLQKHSTPHAAFQPNSQIGEEMSQNSFIKQYLEKQQELLRQRLEREAREAAELEEASAESEDEMTHPEGVASLLPPDFQSSLNRPELELSTHSPRKSSSFSEEKGESDDEKPRKGERRSSRVRQAKSKLPEYSQTAEEEEDQETPSRNLRVRADRNLKIEEEEEEEEEEEDDDDEEEEEVDEAQKSREAEAPTLKQFEDEEGEERTRAKPEKVVDEKPLNIRSQEKGELEKGGRVTRSQEEARRSHLARQQQEKETQIVSLPQEENEVKSSQSLEEKSQSPSPPPLPEDLEKAPVVLQPEQIVSEEETPPPLLTKEASSPPTHIQLQEEMEPVEGPAPPVLIQLSPPNTDAGAREPLASPHPAQLLRSLSPLSGTTDTKAESPAGRVSDESVLPLAQKSSLPECSTQKGVESEREKSAPLPLTVEEFAPAKGITEEPMKKQSLEQKEGRRASHALFPEHSGKQSADSSSSRSSSPSSSSSPSRSPSPDSVASRPQSSPGSKQRDGAQARVHANPHERPKMGSRSTSESRSRSRSRSRSASSSSRKSLSPGVSRDSNTSYTETKDPSCGQEAAAPSGPQLQVLEPKEKAPTFSASVRGRHLSHPEPEQQHVIQRLQPEQGSPKKCEAEEAEPPAATQPQTSETQISHLLESERTHHTVEEKEEVTMDTSENRPENEVPEPPLPVADQVSNDERPEGGAEEEEKKESSMPKSFKRKISVVSATKGVQAGNSDTEGGQPGRKRRWGASTAATQKKPSISITTESLKSLIPDIKPLAGQEAVVDLHADDSRISEDETERNGDDGTHDKGLKICRTVTQVVPAEGQENGQREEEEEKEPEAELPAPPQVSVEVALPPPVEHEVKKVTLGDTLTRRSISQQKSGVSITIDDPVRTAQVPSPPRGKISNIVHISNLVRPFTLGQLKELLGRTGTLVEEAFWIDKIKSHCFVTYSTVEEAVATRTALHGVKWPQSNPKFLCADYAEQDELDYHRGLLVDRPSETKAEEQGAPRPLHPPPPPPVQPPPHPRAEQREQERAVREQWAEREREMERRERTRSEREWDRDKVREGPRSRSRSRDRRRKERAKSKEKKSEKKEKAQEEPPAKLLDDLFRKTKAAPCIYWLPLTESQIVQKEAEQAERAKEREKRRKEREEEEQKEREKEAERERNRQLEREKRREHSRERERDRERERDRGDRERERERDRDRGRERDRRDTKRHSRSRSRSTPVRDRGGRR
B2: Cdc37 (protein, UniProt Q61081 1-379, looked up)
Hsp90 co-chaperone Cdc37: MVDYSVWDHIEVSDDEDETHPNIDTASLFRWRHQARVERMEQFQKEKEELDRGCRECKRKVAECQRKLKELEVAESDGQVELERLRAEAQQLRKEERSWEQKLEDMRKKEKNMPWNVDTLSKDGFSKSMVNTKPEKAEEDSEEAREQKHKTFVEKYEKQIKHFGMLHRWDDSQKYLSDNVHLVCEETANYLVIWCIDLEVEEKCALMEQVAHQTMVMQFILELAKSLKVDPRACFRQFFTKIKTADHQYMEGFKYELEAFKERVRGRAKLRIEKAMKEYEEEERKKRLGPGGLDPVEVYESLPEELQKCFDVKDVQMLQDAISKMDPTDAKYHMQRCIDSGLWVPNSKSGEAKEGEEAGPGDPLLEAVPKAGNEKDVSA
B3: Snrpa (protein, UniProt Q62189 1-287, looked up)
U1 small nuclear …: MATIATMPVPETRANHTIYINNLNEKIKKDELKKSLYAIFSQFGQILDILVSRIMKMRGQAFVIFKEVTSATNALRSMQGFPFYDKPMRIQYAKTDSDIIAKMKGTYVERDRKREKRKPKSQETPAAKKAVQGGAAAPVVGAVQPVPGMPPMPQAPRIMHHMPGQPPYMPPPGMIPPPGLAPGQIPPGAMPPQQLMPGQMPPAQPLSENPPNHILFLTNLPEETNELMLSMLFNQFPGFKEVRLVPGRHDIAFVEFDNEVQAGAARDALQGFKITQNNAMKISFAKK
B4: U2af2 (protein, UniProt P26369 2-475, looked up)
Splicing factor U2AF 65 kDa …: SDFDEFERQLNENKQERDKENRHRKRSHSRSRSRDRKRRSRSRDRRNRDQRSASRDRRRRSKPLTRGAKEEHGGLIRSPRHEKKKKVRKYWDVPPPGFEHITPMQYKAMQAAGQIPATALLPTMTPDGLAVTPTPVPVVGSQMTRQARRLYVGNIPFGITEEAMMDFFNAQMRLGGLTQAPGNPVLAVQINQDKNFAFLEFRSVDETTQAMAFDGIIFQGQSLKIRRPHDYQPLPGMSENPSVYVPGVVSTVVPDSAHKLFIGGLPNYLNDDQVKELLTSFGPLKAFNLVKDSATGLSKGYAFCEYVDINVTDQAIAGLNGMQLGDKKLLVQRASVGAKNATLVSLPSTINQTPVTLQVPGLMSSQVQMGGHPTEVLCLMNMVLPEELLDDEEYEEIVEDVRDECSKYGLVKSIEIPRPVDGVEVPGCGKIFVEFTSVFDCQKAMQGLTGRKFANRVVVTKYCDPDSYHRRDFW
B5: Api5 (protein, UniProt O35841 1-504, looked up)
Apoptosis inhibitor 5: MPTVEELYRNYGILADATEQVGQHKDAYQVILDGVKGGTKEKRLAAQFIPKFFKHFPELADSAINAQLDLCEDEDVSIRRQAIKELPQFATGENLPRVADILTQLLQTDDSAEFNLVNNALLSIFKMDAKGTLGGLFSQILQGEDIVRERAIKFLSTKLKTLPDEVLTKEVEELILTESKKVLEDVTGEEFVLFMKILSGLKSLQTVSGRQQLVELVAEQADLEQAFSPSDPDCVDRLLQCTRQAVPLFSKNVHSTRFVTYFCEQVLPNLSTLTTPVEGLDIQLEVLKLLAEMSSFCGDMEKLETNLRKLFDKLLEYMPLPPEEAENGENAGNEEPKLQFSYVECLLYSFHQLGRKLPDFLTAKLNAEKLKDFKIRLQYFARGLQVYIRQLRLALQGKTGEALKTEENKIKVVALKITNNINVLIKDLFHIPPSYKSTVTLSWKPVQKVEIGQKRTSEDTSSGSPPKKSPGGPKRDARQIYNPPSGKYSSNLSNFNYERSLQGK
B6: P00761 (protein, UniProt P00761 1-231, looked up)
chain: FPTDDDDKIVGGYTCAANSIPYQVSLNSGSHFCGGSLINSQWVVSAAHCYKSRIQVRLGEHNIDVLEGNEQFINAAKIITHPNFNGNTLDNDIMLIKLSSPATLNSRVATVSLPRSCAAAGTECLISGWGNTKSSGSSYPSLLQCLKAPVLSDSSCKSSYPGQITGNMICVGFLEGGKDSCQGDSGGPVVCNGQLQGIVSWGYGCAQKNKPGVYTKVCNYVNWIQQTIAAN
modifications: full-length
B7: Gsk3b (protein, UniProt Q9WV60 1-420, looked up)
Glycogen synthase kinase-3 …: MSGRPRTTSFAESCKPVQQPSAFGSMKVSRDKDGSKVTTVVATPGQGPDRPQEVSYTDTKVIGNGSFGVVYQAKLCDSGELVAIKKVLQDKRFKNRELQIMRKLDHCNIVRLRYFFYSSGEKKDEVYLNLVLDYVPETVYRVARHYSRAKQTLPVIYVKLYMYQLFRSLAYIHSFGICHRDIKPQNLLLDPDTAVLKLCDFGSAKQLVRGEPNVSYICSRYYRAPELIFGATDYTSSIDVWSAGCVLAELLLGQPIFPGDSGVDQLVEIIKVLGTPTREQIREMNPNYTEFKFPQIKAHPWTKVFRPRTPPEAIALCSRLLEYTPTARLTPLEACAHSFFDELRDPNVKLPNGRDTPALFNFTTQELSSNPPLATILIPPHARIQAAASPPANATAASDTNAGDRGQTNNAASASASNST

Target: T1, nSR100
Test: AP-MS nSR100 interaction partners from mouse N2A cells (Table 5)
Assay type: binding
Conditions: for AvgP (average of the SAINT scores) / MaxP (maximal SAINT score): bait Srrm4; for FoldChange between the prey Avg spectra of the bait and control purifications: bait Srrm4, 0.1 added to prevent division by 0; for AvgSpec (average number of spectra per replicate): bait Srrm4, 2 replicates; for Spectra (number of spectra for the prey in the purification of the bait): AP-MS; for SpecSum: bait Srrm4, sum of spectra over 2 replicates
[1] = bait Srrm4, biological replicate 1 (first number of the cell)
[2] = bait Srrm4, biological replicate 2 (second number of the cell)

From the text: By applying affinity purification coupled to mass-spectrometry (AP-MS), several interaction nSR100 partner proteins were detected that provide insight into mechanisms of post-translational regulation of nSR100 levels.

Molecule	AvgP (average of the SAINT scores)	MaxP (maximal SAINT score)	FoldChange between the prey Avg spectra of the bait and control purifications	AvgSpec (average number of spectra per replicate)	Spectra (number of spectra for the prey in the purification of the bait) [1]	Spectra (number of spectra for the prey in the purification of the bait) [2]	SpecSum
B1	1	1	250	25	23	27	50
B2	1	1	4.61	53	58	48	106
B3	1	1	7.09	39	38	40	78
B4	1	1	4.83	111	108	114	222
B5	1	1	18	9	8	10	18
B6	1	1	150	15	15|15	15|15	30
B7	1	1	65	6.5	6	7	13
